Measured values from patent publication US20150307603A1 (MODIQUEST B V, published 2015).
Non-standard residues stand in square brackets, D forms with d. No end group written: not given here. Cit = NC(=O)NCCC[C@H](N)C(=O)O

Key:
[1] = target: T1, huFibα XH (human, X at position 15 = citrulline; biotin-labelled); test: ELISA, Ab 0.0032 ug/well
T1 peptide: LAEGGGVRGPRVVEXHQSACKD
Method: (§1) Biotin and citrulline-containing peptides derived from fibrinogen and vimentin were immobilized on NEUTRAVIDIN®-coated 96-well ELISA plates (0.3 μg/well). CFC-1 and CFC-0 were coated at the same concentration and served as positive and negative controls, respectively, for specific anti-citrulline reactivity and as coating controls. Non-coated wells were used to test for aspecific binding of the antibodies. […] Detection of bound anti-citrulline antibodies was performed by incubating the wells with rabbit anti-human HRP (1:2000) for 1 hour at RT followed by incubation with TMB substrate. The resulting OD (y-axis) is a measure for antibody binding.
(§2) Biotin-labeled and citrulline-containing fibrinogen and vimentin peptides (Table 5) were also tested for reactivity with the therapeutic antibodies. Peptides were coated on 96-well NEUTRAVIDIN®-ELISA plates.

[2] = target: T2, CFC-1; test: ELISA, Ab 0.0032 ug/well
T2 construct: Positive control for anti-citrulline reactivity; also called cfc1 XG; Cfc1-peptide
Method: as §1, §2

[3] = target: T3, msFibα XG (mouse, X at position 8 = citrulline; biotin-labelled); test: ELISA, Ab 0.0032 ug/well
T3 peptide: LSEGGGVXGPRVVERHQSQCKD
Method: as §1, §2

[4] = target: T4, msFibα XH (mouse, X at position 15 = citrulline; biotin-labelled); test: ELISA, Ab 0.0032 ug/well
T4 peptide: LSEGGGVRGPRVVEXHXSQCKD
Method: as §1, §2

[5] = target: T5, msVim XS/XL (mouse, also: biotin-labelled); test: ELISA, Ab 0.0032 ug/well
T5 construct: also called mouse vimentin peptide
T5 peptide: YVT[Cit]SSAV[Cit]L[Cit]SSVP
Method: as §1, §2

[6] = target: T6, msFibβ XG (mouse, also: biotin-labelled); test: ELISA, Ab 0.0032 ug/well
T6 construct: also called mouse fibrinogen β peptide
T6 peptide: EPTDSLDA[Cit]GHRPVDRR
Method: as §1, §2

[7] = target: T7, huFibα XG (human, X at position 8 = citrulline; biotin-labelled); test: ELISA, Ab 0.0032 ug/well
T7 peptide: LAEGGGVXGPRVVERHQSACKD
Method: as §1, §2

[8] = target: T2, CFC-1; test: ELISA, Ab 2 ug/well
Method: as §1, with “histone 2A” for “fibrinogen and vimentin”

[9] = target: T8, peptide no. 6 (human histone 2A) (human, also: biotin-labelled); test: ELISA, Ab 2 ug/well
T8 construct: also called peptide 6
T8 peptide: VHRLL[Cit]KGNYSE
Method: as §1, with “histone 2A” for “fibrinogen and vimentin”

[10] = target: T9, peptide no. 2 (human histone 2A) (human, also: biotin-labelled); test: ELISA, Ab 2 ug/well
T9 construct: also called peptide 2
T9 peptide: AKAKS[Cit]SSRAGL
Method: as §1, with “histone 2A” for “fibrinogen and vimentin”

[11] = target: T10, peptide no. 3 (human histone 2A) (human, also: biotin-labelled); test: ELISA, Ab 2 ug/well
T10 construct: also called peptide 3
T10 peptide: KSRSS[Cit]AGLQFP
Method: as §1, with “histone 2A” for “fibrinogen and vimentin”

[12] = target: T11, peptide no. 10 (human histone 2A) (human, also: biotin-labelled); test: ELISA, Ab 2 ug/well
T11 construct: also called peptide 10
T11 peptide: TRIIP[Cit]HLQLAI
Method: as §1, with “histone 2A” for “fibrinogen and vimentin”

[13] = target: T12, peptide no. 12 (human histone 2A) (human, also: biotin-labelled); test: ELISA, Ab 2 ug/well
T12 construct: also called peptide 12
T12 peptide: NKLLG[Cit]VTIAQG
Method: as §1, with “histone 2A” for “fibrinogen and vimentin”

[14] = target: T13, peptide no. 4 (human histone 2A) (human, also: biotin-labelled); test: ELISA, Ab 2 ug/well
T13 construct: also called peptide 4
T13 peptide: QFPVG[Cit]VHRLLR
Method: as §1, with “histone 2A” for “fibrinogen and vimentin”

[15] = target: T14, peptide no. 8 (human histone 2A) (human, also: biotin-labelled); test: ELISA, Ab 2 ug/well
T14 construct: also called peptide 8
T14 peptide: AGNAA[Cit]DNKKTR
Method: as §1, with “histone 2A” for “fibrinogen and vimentin”

[16] = target: T2, CFC-1; test: ELISA, Ab 0.4 ug/well
Method: as §1, with “histone 2A” for “fibrinogen and vimentin”

[17] = target: T15, peptide no. 7 (human histone 2A) (human, also: biotin-labelled); test: ELISA, Ab 0.4 ug/well
T15 construct: also called peptide 7
T15 peptide: GNYSE[Cit]VGAGAP
Method: as §1, with “histone 2A” for “fibrinogen and vimentin”

[18] = target: T16, peptide no. 1 (human histone 2A) (human, also: biotin-labelled); test: ELISA, Ab 0.4 ug/well
T16 construct: also called peptide 1; AAASGXGKQGGK
T16 peptide: AAASG[Cit]GKQGGK
Method: as §1, with “histone 2A” for “fibrinogen and vimentin”

[19] = target: T8, peptide no. 6 (human histone 2A); test: ELISA, Ab 0.4 ug/well
Method: as §1, with “histone 2A” for “fibrinogen and vimentin”

[20] = target: T9, peptide no. 2 (human histone 2A); test: ELISA, Ab 0.4 ug/well
Method: as §1, with “histone 2A” for “fibrinogen and vimentin”

[21] = target: T17, peptide no. 9 (human histone 2A) (human, also: biotin-labelled); test: ELISA, Ab 0.4 ug/well
T17 construct: also called peptide 9
T17 peptide: DNKKT[Cit]IIPRHL
Method: as §1, with “histone 2A” for “fibrinogen and vimentin”

[22] = target: T10, peptide no. 3 (human histone 2A); test: ELISA, Ab 0.4 ug/well
Method: as §1, with “histone 2A” for “fibrinogen and vimentin”

[23] = target: T11, peptide no. 10 (human histone 2A); test: ELISA, Ab 0.4 ug/well
Method: as §1, with “histone 2A” for “fibrinogen and vimentin”

[24] = target: T12, peptide no. 12 (human histone 2A); test: ELISA, Ab 0.4 ug/well
Method: as §1, with “histone 2A” for “fibrinogen and vimentin”

[25] = target: T13, peptide no. 4 (human histone 2A); test: ELISA, Ab 0.4 ug/well
Method: as §1, with “histone 2A” for “fibrinogen and vimentin”

[26] = target: T18, peptide no. 5 (human histone 2A) (human, also: biotin-labelled); test: ELISA, Ab 0.4 ug/well
T18 construct: also called peptide 5
T18 peptide: VGRVH[Cit]LLRKGN
Method: as §1, with “histone 2A” for “fibrinogen and vimentin”

[27] = target: T14, peptide no. 8 (human histone 2A); test: ELISA, Ab 0.4 ug/well
Method: as §1, with “histone 2A” for “fibrinogen and vimentin”

[28] = target: T19, peptide no. 11 (human histone 2A) (human, also: biotin-labelled); test: ELISA, Ab 0.4 ug/well
T19 construct: also called peptide 11
T19 peptide: LQLAI[Cit]NDEELN
Method: as §1, with “histone 2A” for “fibrinogen and vimentin”

B1: RhmAb2.102 (antibody, human IgG1, lambda)
heavy: not shown
light: QSVLTQPPSMSAAPGQKVTISCSGSSSNIGNNYVSWYQQVPGTAPKLLIYDDNKRPSGIPGRFSGSKSATSATLGITGLQAGDEADYYCGSWDDNLSVVLFGGGTKLTVLGQPKAAPSVTLFPPSSEELQANKATLVCLISDFYPGAVTVAWKADSSPVKAGVETTTPSKQSNNKYAASSYLSLTPEQWKSHRSYSCQVTHEGSTVEKTVAPTECS
notes: Human IgG1 lambda; also called Rhm2.102
- OD [1]: 0.123 OD450
- OD [2]: 0.506 OD450
- OD [3]: 0.125 OD450
- OD [4]: 0.085 OD450
- OD [5]: 0.142 OD450
- OD [6]: 0.12 OD450
- OD [7]: 0.125 OD450
- OD [8]: 3.21 OD450
- OD [9]: 0.752 OD450
- OD [10]: 0.27 OD450
- OD [11]: 0.286 OD450
- OD [12]: 0.07 OD450
- OD [13]: 0.067 OD450
- OD [14]: 1.3 OD450
- OD [15]: 0.06 OD450
- OD [16]: 3.06 OD450
- OD [17]: 0.064 OD450
- OD [18]: 2.8 OD450
- OD [19]: 0.333 OD450
- OD [20]: 0.136 OD450
- OD [21]: 0.057 OD450
- OD [22]: 0.154 OD450
- OD [23]: 0.051 OD450
- OD [24]: 0.061 OD450
- OD [25]: 0.564 OD450
- OD [26]: 0.082 OD450
- OD [27]: 0.061 OD450
- OD [28]: 0.064 OD450
